B1: Kinesin-like protein KIF16B, residues 1213 to 1273; numbered along this chain, Q96L93 (parent)
chain: ETWTVFRRYSRFREMHKTLKLKYAELAALEFPPKKLFGNKDERVIAERRSHLEKYLRDFFS

Variants of: B1
Assay: abundance fitness (aPCA) (normalised: wild type 0, dead -1); higher = more abundant; growth selection in yeast, the domain comes from the species named
Settings: Homo sapiens

Abundance fitness of substitutions, site by site:
H16: D -0.835; N -0.353; T 0.144; V 0.342; Y 0.167; Q -0.194; I 0.452; S -0.083; R -0.073; E -0.842; W 0.534; A 0.135; M 0.311; K 0.062; L 0.379; C 0.016; F -0.044
S10: Y -0.567; F 0.099; Q -0.419; P 0.135; L -0.007; W -0.018; T 0.136; K -0.317; I -0.229; H -1.1; R -0.395; V -0.167
R11: A 0.206; C 0.166; T -0.096; M 0.423; H -0.112; W 0.205; Y -0.154; V 0.246; P -0.133; N -0.122; S 0.09; L -0.059; D -0.231; G -0.03; E -0.487
R13: Y -0.079; T -0.056; K 0.1; A 0.096; G 0.023; N -0.265; Q -0.398; L -0.108; W -0.213; C -0.333; M -0.153; E -0.354; S -0.137; V -0.443; D 0.391
L19: R -1.07; F -0.146; V -0.656; T -0.844; E -0.917; M 0.144; Q -0.991; K -0.999; G -0.977; A -0.737; S -1.11; N -0.658; P -1.02; D -1.13; C -0.603
K20: V -0.853; C -0.574; W -0.734; Y -1; D -0.945; N -1.01; G -0.676; H -0.421; L -0.671; R -0.211; M -0.746; Q -0.411; P -0.904; A -0.632; E -1.02
M15: L 0.265; G -0.736; V 0.215; F -0.095; A -0.044; T -0.455; S -0.908; Q -1.09; E -1.09; W 0.229; P -0.993; R -1.09
L21: K 0.339; H 0.112; F -0.559; G -0.028; E 0.352; I -0.379; D 0.101; C -0.131; M 0.147; A 0.356
K17: Y -0.607; C -0.483; E -0.311; R -0.199; T -0.489; Q -0.452; L -1; A -0.325; F -0.685; W -0.783; M -0.343; V -0.225
T18: W 0.472; H -0.463; L -0.247; A 0.176; G -0.237; N -0.514; C -0.143; K -0.056; S -0.133; D -0.806; E -0.223; M -0.06; R -0.222; Y 0.508; V -0.038
E14: G -0.183; N -0.556; C -0.319; Q -0.534; I -0.867; A -0.318; D -0.159; F -0.433; P -0.589; L -0.429; S -0.229; H 0.13; M -0.41; T -0.597; W -0.69; V -0.299
F12: E -0.941; I 0.068; G -0.597; C -0.164; S -0.642; A -0.271; R -0.921; W 0.017; Y -0.469; K -1.08; M -0.103; T -0.907; V 0.047

Source: the Human Domainome abundance scans (Beltran et al. 2025)
